# Measured values reported in paper PMC6297234, “aPKC controls endothelial growth by modulating c-Myc via FoxO1 DNA-binding ability”.
# Molecular target: GST-FoxO1 DBD S218D (Homo sapiens, UniProt Q12778 151-266, S218D)
# Assay: EMSA; 1 µM protein, 1 nM DNA, 1 ng/mL poly dI-dC; 20 mM Tris pH 8.0, 50 mM KCl, 5% glycerol, 2 mM DTT, 0.2 mM EDTA, 2 mM MgCl2, 0.1 mg/mL BSA, 1 ng/mL poly dI-dC; RT 30 min; 6% gel in 0.5X TBE at 4 °C
# Conditions: protein: recombinant; tags: GST (pDEST15, N-terminal); blunt
# GST-FoxO1 DBD S218D, sequence (Q12778 151-266 S218D): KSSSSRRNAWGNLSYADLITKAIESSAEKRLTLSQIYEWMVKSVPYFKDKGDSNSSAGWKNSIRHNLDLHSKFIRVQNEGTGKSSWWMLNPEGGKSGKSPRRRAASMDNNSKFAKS
binder,measurement,value
FoxO DBE duplex (dsDNA) DNA 1: CAAAATGTAAACAAGA DNA 2: TCTTGTTTACATTTTG,binding result,no binding
